Assay results as given in PMC7954662 (Science (New York, N.Y.), 2020).

Target: Human GCGR (Q27-F477) with N-terminal FLAG and C-terminal octahistidine tag (human, UniProt P47871 27-477)
Experiment: cryo-EM structure

Sequence of Human GCGR (Q27-F477) with N-terminal FLAG and C-terminal octahistidine tag (P47871 27-477): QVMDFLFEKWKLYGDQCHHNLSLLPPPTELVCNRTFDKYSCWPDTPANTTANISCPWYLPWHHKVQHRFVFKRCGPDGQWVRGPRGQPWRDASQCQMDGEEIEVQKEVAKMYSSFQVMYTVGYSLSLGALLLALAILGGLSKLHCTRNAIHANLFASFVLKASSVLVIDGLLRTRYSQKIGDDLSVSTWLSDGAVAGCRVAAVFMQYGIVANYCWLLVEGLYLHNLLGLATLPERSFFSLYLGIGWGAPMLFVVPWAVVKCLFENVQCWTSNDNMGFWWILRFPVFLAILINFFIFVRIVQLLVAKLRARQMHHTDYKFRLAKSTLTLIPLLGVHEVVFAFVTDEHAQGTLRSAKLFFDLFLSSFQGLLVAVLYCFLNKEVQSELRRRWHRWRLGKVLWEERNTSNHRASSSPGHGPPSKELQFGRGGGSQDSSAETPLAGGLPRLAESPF

B1: Gαs (human, short splice variant), subunit of the Gs heterotrimer (natural protein)
chain: MGCLGNSKTEDQRNEEKAQREANKKIEKQLQKDKQVYRATHRLLLLGAGESGKSTIVKQMRILHVNGFNGDSEKATKVQDIKNNLKEAIETIVAAMSNLVPPVELANPENQFRVDYILSVMNVPDFDFPPEFYEHAKALWEDEGVRACYERSNEYQLIDCAQYFLDKIDVIKQADYVPSDQDLLRCRVLTSGIFETKFQVDKVNFHMFDVGGQRDERRKWIQCFNDVTAIIFVVASSSYNMVIREDNQTNRLQEALNLFKSIWNNRWLRTISVILFLNKQDLLAEKVLAGKSKIEDYFPEFARYTTPEDATPEPGEDPRVTRAKYFIRDEFLRISTASGDGRHYCYPHFTCAVDTENIRRVFNDCRDIIQRMHLRQYELL
- binding result: binds
